Results: the supplement of paper PMC10126150
± gives the standard deviation of the averaged measurements.

test system: ATP; assay: switch fluorescence ratio, 500 uM ATP over buffer (Cy3 cluster intensity, sum of 5 cycles each) (fold (ratio)); higher = stronger signal-on switching upon ATP binding; sequences stand for … in TCGTCGGCAGCGTCAGATGTGTATAAGAGACAGTTTTTTTTTTTTTTTTTTTTTTTTT…TC; conditions: aptamer strand: ATP DNA aptamer (quencher-CACCTGGGGGAGTATTGCGGAGGAAGG + anchor), 100 nM annealed; ATP concentration: 500 uM
Method in brief: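 Values give the fluorescence ratio for each switch-domain sequence, averaged from per-cluster ratios of summed target-cycle to summed buffer-cycle Cy3 intensity. The Cy3-labelled switching-strand clusters sat on a modified Illumina MiSeq flow-cell, were annealed to 100 nM quencher-labelled ATP aptamer, and were imaged in selection buffer, then after 15 min with 500 uM ATP at 22 °C. Five cycles ran with NaOH stripping and re-annealing between them, and clusters outside 100-1000 RFU were excluded.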
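Note: ATP exposure 15 min at 22 °C before imaging.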

Row | Sequence | switch fluorescence ratio
1 | TGTAAGCCGG | 1.05 ± 0.07
2 | AGGCTAGGGG | 1.01 ± 0.042
3 | ACCTTCGTTG | 1.22 ± 0.003
4 | TGGTTGGGCT | 1.01 ± 0.026
5 | TGCAGGATAT | 1.61 ± 0.57
6 | ATGAGAATGC | 1.024 ± 0.0063
7 | GATGCGGGGA | 1.01 ± 0.018
8 | CGGGGTGGCT | 0.977 ± 0.16
9 | AATTGTGAGG | 1.01 ± 0.023
10 | GGGTAGTCGG | 0.993 ± 0.032
11 | GGAAACGATT | 1.01 ± 0.035
12 | AAAACATTCG | 1.16 ± 0.12
13 | TAATTGCTTT | 0.966 ± 0.029
14 | TATATATCAA | 1.003 ± 0.005
15 | TTTTGTTAAT | 1.01 ± 0.035
16 | TATGTCATAC | 1.14 ± 0.058
17 | TAGATGGGTC | 1.01 ± 0.013
18 | CATTATGTGA | 0.987 ± 0.051
19 | CCGAAGGTTA | 1.09 ± 0.032
20 | GGGGCAAGAT | 1.52 ± 0.78
21 | GATTATGCGG | 0.9849 ± 0.006
22 | GAAACGGGGG | 1.013 ± 0.009
23 | TGCGAGATTT | 1.01 ± 0.018
24 | TGATTATGGA | 0.995 ± 0.045
25 | GATCTCAGGG | 1 ± 0.034

Row | Sequence | switch fluorescence ratio
26 | TTTTTCCGTA | 1.02 ± 0.059
27 | GAAACATGCT | 1.01 ± 0.052
28 | TGGGTTTTGA | 1.01 ± 0.033
29 | AGGTTAATAT | 1 ± 0.043
30 | GATGTTTGTG | 0.992 ± 0.045
31 | TCATGGGCCG | 1.33 ± 0.43
32 | TGGTACACGT | 0.989 ± 0.014
33 | ACTAGTAGTC | 0.994 ± 0.012
34 | AGGGCCAGTC | 0.998 ± 0.074
35 | ACTGGGAGTG | 1 ± 0.042
36 | GGCGTTTTTG | 1.02 ± 0.046
37 | TATCGAGGGT | 0.9698 ± 0.0094
38 | GTTTGTGTCA | 0.993 ± 0.052
39 | CAGTGTCCGC | 1.07 ± 0.018
40 | GGGAACACTT | 0.998 ± 0.025
41 | TTGTTGTTTT | 0.995 ± 0.035
42 | AACGTGACAG | 1.06 ± 0.046
43 | TTGATGGCGA | 1.22 ± 0.3
44 | AACCAGTTAG | 1.01 ± 0.021
45 | ATGCTCTGCC | 0.992 ± 0.029
46 | CCTAGTAGCG | 1.01 ± 0.014
47 | CATGATTCA | 0.998 ± 0.041
48 | AGCATTGAGG | 0.984 ± 0.0067
49 | TCGGGATACG | 1.14 ± 0.021
50 | GCCCGCTAAT | 2.25 ± 0.052

Row | Sequence | switch fluorescence ratio
51 | ACCTTTTAAG | 1.23 ± 0.3
52 | TGTTTATCGG | 0.998 ± 0.041
53 | TGGGGTAAAC | 0.997 ± 0.024
54 | TGTCAGGGGT | 1.03 ± 0.043
55 | GGGAAATGGG | 0.9747 ± 0.0087
56 | ACACTATAAT | 1.09 ± 0.014
57 | GCGGAGAGTT | 1.01 ± 0.019
58 | GGTGTTGGAG | 0.997 ± 0.019
59 | TTAAGTCAGT | 0.9717 ± 0.005
60 | TCGGGGGGCC | 1.02 ± 0.074
61 | GGGGACTGTA | 1.04 ± 0.061
62 | GGTAGCAGGG | 1.014 ± 0.0097
63 | TTAAGGCGTT | 0.9791 ± 0.0071
64 | GGGGTACAAT | 1.07 ± 0.041
65 | TAATGTGTAC | 1.024 ± 0.0044
66 | GGGATGCCCT | 1.01 ± 0.027
67 | AGGGGATATT | 0.996 ± 0.01
68 | GTAACCAAGA | 1.02 ± 0.0035
69 | CGATCAGTTG | 0.9853 ± 0.004
70 | TAAGGGCCCG | 0.991 ± 0.069
71 | TATTTTTTAT | 1.022 ± 0.0017
72 | TAGTGCCGGT | 0.993 ± 0.016
73 | TCCTTAGTTC | 0.969 ± 0.035
74 | TCGGGGCTCC | 2.87 ± 2.6
75 | GGGGGGAACT | 0.987 ± 0.022

Row | Sequence | switch fluorescence ratio
76 | ATTCTAGGA | 0.985 ± 0.02
77 | TAGATATGGT | 0.989 ± 0.021
78 | CAGGGGGGGT | 1.03 ± 0.061
79 | GTTTTCGGTT | 1.013 ± 0.0056
80 | TGAAGGTCGT | 0.99 ± 0.029
81 | CATTTTTTGG | 0.998 ± 0.019
82 | GCCGGGGGTA | 1.04 ± 0.079
83 | GGTTGCTCGG | 0.998 ± 0.026
84 | TTTACAATCG | 0.9899 ± 0.0098
85 | CTGAAACAGC | 1.06 ± 0.043
86 | AGGAGGGAG | 1.003 ± 0.0093
87 | TGTGGGGAGC | 0.995 ± 0.043
88 | AGGAGACAAG | 0.948 ± 0.053
89 | AAGCATTAGT | 1.05 ± 0.04
90 | AGGGATGGGA | 1.01 ± 0.019
91 | CTAAAGTGGG | 0.973 ± 0.015
92 | CGGGCTGTTT | 0.977 ± 0.013
93 | TCGGGGGTTC | 1.06 ± 0.027
94 | CCGGGCCAGC | 1.47 ± 0.063
95 | TTATGCGGAT | 1.02 ± 0.015
96 | TACTTAAGTT | 1.01 ± 0.019
97 | GGACGGGTGC | 1.1 ± 0.088
98 | TTGTCCCTGC | 1.016 ± 0.0054
99 | AATTTTAGAA | 1 ± 0.053
100 | AAGAAAGGAA | 0.951 ± 0.029
